Assay results reported in publication PMC5902510.

Target: GST-SpyCatcher fusion protein, immobilised on nanoparticles (Streptococcus pyogenes)
Test: dynamic light scattering; GST-SpyCatcher held on 40 nm citrate-capped gold nanoparticles; excess of the second protein, 3 h incubation; increase of Z-average diameter (Δd); 20 °C; 10 mM HEPES pH 7.3, 10 mM NaCl

In the case of NEM-GST-SpyTag, the increase of particle diameter (Δd) is reported as 3 nm.
